How the values were obtained:
Experiment in all cases: SPR
PRTG ECD-Fc = biological target: T1, PRTG ECD-Fc (human, UniProt Q2VWP7 36-949)
T1 sequence: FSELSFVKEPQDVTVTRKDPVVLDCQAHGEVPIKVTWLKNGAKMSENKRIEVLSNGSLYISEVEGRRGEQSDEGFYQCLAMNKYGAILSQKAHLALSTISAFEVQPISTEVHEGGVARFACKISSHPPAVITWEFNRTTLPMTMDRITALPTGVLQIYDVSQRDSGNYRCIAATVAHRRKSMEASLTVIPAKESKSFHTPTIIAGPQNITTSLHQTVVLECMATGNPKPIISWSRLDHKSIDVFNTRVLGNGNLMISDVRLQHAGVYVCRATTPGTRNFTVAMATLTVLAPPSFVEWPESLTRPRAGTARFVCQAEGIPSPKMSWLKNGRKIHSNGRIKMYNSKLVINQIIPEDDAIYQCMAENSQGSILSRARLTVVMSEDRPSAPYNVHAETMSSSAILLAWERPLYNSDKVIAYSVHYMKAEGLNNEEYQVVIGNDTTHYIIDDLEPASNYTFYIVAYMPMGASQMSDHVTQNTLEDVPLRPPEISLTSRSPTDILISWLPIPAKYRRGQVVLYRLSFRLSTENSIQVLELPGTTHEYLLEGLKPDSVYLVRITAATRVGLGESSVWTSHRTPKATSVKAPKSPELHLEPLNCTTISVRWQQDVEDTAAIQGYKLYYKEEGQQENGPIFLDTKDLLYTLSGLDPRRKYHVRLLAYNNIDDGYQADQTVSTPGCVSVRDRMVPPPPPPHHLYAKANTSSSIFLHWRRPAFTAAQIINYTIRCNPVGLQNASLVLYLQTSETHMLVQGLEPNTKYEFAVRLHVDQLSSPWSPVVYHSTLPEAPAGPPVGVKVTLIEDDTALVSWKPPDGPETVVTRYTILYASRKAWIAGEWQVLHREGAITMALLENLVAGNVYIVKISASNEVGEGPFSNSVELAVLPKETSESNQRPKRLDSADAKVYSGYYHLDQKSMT

human ISLR2 ECD-Fc = biological target: T2, human ISLR2 ECD-Fc (human, UniProt Q6UXK2 19-589, biotin on the AviTag (as SPR ligand))
T2 sequence: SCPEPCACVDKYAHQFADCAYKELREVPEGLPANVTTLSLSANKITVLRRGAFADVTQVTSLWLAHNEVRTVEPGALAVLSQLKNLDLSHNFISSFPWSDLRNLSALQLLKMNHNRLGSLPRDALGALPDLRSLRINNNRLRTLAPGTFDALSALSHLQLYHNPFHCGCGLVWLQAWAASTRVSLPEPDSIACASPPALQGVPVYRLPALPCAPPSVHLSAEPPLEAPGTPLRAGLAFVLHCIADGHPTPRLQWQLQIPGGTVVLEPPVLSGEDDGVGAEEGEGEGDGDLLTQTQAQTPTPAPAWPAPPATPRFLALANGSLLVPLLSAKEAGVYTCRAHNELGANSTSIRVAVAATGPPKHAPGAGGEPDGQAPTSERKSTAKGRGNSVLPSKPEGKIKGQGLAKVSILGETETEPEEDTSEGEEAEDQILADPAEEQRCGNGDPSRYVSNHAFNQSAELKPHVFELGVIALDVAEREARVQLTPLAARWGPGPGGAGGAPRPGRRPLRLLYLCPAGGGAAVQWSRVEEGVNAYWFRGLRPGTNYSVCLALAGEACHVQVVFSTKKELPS

PTPRS ECD-Fc = biological target: T3, PTPRS ECD-Fc (human, UniProt Q13332 30-1282)
T3 sequence: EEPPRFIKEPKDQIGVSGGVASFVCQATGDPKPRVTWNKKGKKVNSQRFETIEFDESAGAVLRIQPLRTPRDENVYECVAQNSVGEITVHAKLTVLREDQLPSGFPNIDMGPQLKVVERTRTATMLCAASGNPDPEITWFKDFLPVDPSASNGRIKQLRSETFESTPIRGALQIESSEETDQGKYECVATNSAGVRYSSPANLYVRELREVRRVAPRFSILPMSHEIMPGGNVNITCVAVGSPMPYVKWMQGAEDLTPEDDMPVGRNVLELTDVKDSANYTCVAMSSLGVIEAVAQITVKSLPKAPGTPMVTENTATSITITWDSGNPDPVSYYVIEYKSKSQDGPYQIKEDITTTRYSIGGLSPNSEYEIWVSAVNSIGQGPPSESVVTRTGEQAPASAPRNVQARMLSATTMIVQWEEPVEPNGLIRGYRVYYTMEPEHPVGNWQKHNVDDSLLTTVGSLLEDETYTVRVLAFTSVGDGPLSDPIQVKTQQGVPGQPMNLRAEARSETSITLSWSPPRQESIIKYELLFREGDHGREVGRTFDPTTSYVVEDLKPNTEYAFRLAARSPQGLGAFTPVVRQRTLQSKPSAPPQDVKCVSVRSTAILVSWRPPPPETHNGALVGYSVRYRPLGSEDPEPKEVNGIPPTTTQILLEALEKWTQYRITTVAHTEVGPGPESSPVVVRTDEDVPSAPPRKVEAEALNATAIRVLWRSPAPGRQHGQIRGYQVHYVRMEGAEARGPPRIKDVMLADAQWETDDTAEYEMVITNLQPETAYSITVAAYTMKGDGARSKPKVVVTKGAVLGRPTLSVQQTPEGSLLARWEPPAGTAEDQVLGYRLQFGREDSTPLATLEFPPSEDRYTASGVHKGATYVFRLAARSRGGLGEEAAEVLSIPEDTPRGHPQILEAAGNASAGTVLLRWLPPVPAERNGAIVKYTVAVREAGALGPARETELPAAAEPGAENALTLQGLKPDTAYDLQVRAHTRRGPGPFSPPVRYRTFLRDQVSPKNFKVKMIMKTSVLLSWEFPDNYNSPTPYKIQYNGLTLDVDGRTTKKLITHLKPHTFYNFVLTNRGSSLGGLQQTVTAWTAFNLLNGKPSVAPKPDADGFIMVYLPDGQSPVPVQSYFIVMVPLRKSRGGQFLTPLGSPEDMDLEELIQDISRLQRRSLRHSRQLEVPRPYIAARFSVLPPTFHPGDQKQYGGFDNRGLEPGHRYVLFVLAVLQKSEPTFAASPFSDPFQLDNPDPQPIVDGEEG

B1: LTF-Fc (Fc fusion)
chain: GRRRSVQWCAVSQPEATKCFQWQRNMRKVRGPPVSCIKRDSPIQCIQAIAENRADAVTLDGGFIYEAGLAPYKLRPVAAEVYGTERQPRTHYYAVAVVKKGGSFQLNELQGLKSCHTGLRRTAGWNVPIGTLRPFLNWTGPPEPIEAAVARFFSASCVPGADKGQFPNLCRLCAGTGENKCAFSSQEPYFSYSGAFKCLRDGAGDVAFIRESTVFEDLSDEAERDEYELLCPDNTRKPVDKFKDCHLARVPSHAVVARSVNGKEDAIWNLLRQAQEKFGKDKSPKFQLFGSPSGQKDLLFKDSAIGFSRVPPRIDSGLYLGSGYFTAIQNLRKSEEEVAARRARVVWCAVGEQELRKCNQWSGLSEGSVTCSSASTTEDCIALVLKGEADAMSLDGGYVYTAGKCGLVPVLAENYKSQQSSDPDPNCVDRPVEGYLAVAVVRRSDTSLTWNSVKGKKSCHTAVDRTAGWNIPMGLLFNQTGSCKFDEYFSQSCAPGSDPRSNLCALCIGDEQGENKCVPNSNERYYGYTGAFRCLAENAGDVAFVKDVTVLQNTDGNNNEAWAKDLKLADFALLCLDGKRKPVTEARSCHLAMAPNHAVVSRMDKVERLKQVLLHQQAKFGRNGSDCPDKFCLFQSETKNLLFNDNTECLARLHGKTTYEKYLGPQYVAGITNLKKCSTSPLLEACEFLRK
modifications: biotin on the AviTag (as SPR ligand)
B1: binds (PRTG ECD-Fc).

B2: ICAM5 ECD-Fc (Fc fusion)
chain: EPFWADLQPRVAFVERGGSLWLNCSTNCPRPERGGLETSLRRNGTQRGLRWLARQLVDIREPETQPVCFFRCARRTLQARGLIRTFQRPDRVELMPLPPWQPVGENFTLSCRVPGAGPRASLTLTLLRGAQELIRRSFAGEPPRARGAVLTATVLARREDHGANFSCRAELDLRPHGLGLFENSSAPRELRTFSLSPDAPRLAAPRLLEVGSERPVSCTLDGLFPASEARVYLALGDQNLSPDVTLEGDAFVATATATASAEQEGARQLVCNVTLGGENRETRENVTIYSFPAPLLTLSEPSVSEGQMVTVTCAAGAQALVTLEGVPAAVPGQPAQLQLNATENDDRRSFFCDATLDVDGETLIKNRSAELRVLYAPRLDDSDCPRSWTWPEGPEQTLRCEARGNPEPSVHCARSDGGAVLALGLLGPVTRALSGTYRCKAANDQGEAVKDVTLTVEYAPALDSVGCPERITWLEGTEASLSCVAHGVPPPDVICVRSGELGAVIEGLLRVAREHAGTYRCEATNPRGSAAKNVAVTVEYGPRFEEPSCPSNWTWVEGSGRLFSCEVDGKPQPSVKCVGSGGATEGVLLPLAPPDPSPRAPRIPRVLAPGIYVCNATNRHGSVAKTVVVSAESPPEMDESTCPSHQTWLEGAEASALACAARGRPSPGVRCSREGIPWPEQQRVSREDAGTYHCVATNAHGTDSRTVTVGVEYRPVVAELAASPPGGVRPGGNFTLTCRAEAWPPAQISWRAPPGALNIGLSSNNSTLSVAGAMGSHGGEYECAATNAHGRHARRITVRVAGPW
modifications: biotin on the AviTag (as SPR ligand)
B2: binds (PRTG ECD-Fc).

B3: WFIKKN2-Fc (Fc fusion)
chain: LPPIRYSHAGICPNDMNPNLWVDAQSTCRRECETDQECETYEKCCPNVCGTKSCVAARYMDVKGKKGPVGMPKEATCDHFMCLQQGSECDIWDGQPVCKCKDRCEKEPSFTCASDGLTYYNRCYMDAEACSKGITLAVVTCRYHFTWPNTSPPPPETTMHPTTASPETPELDMAAPALLNNPVHQSVTMGETVSFLCDVVGRPRPEITWEKQLEDRENVVMRPNHVRGNVVVTNIAQLVIYNAQLQDAGIYTCTARNVAGVLRADFPLSVVRGHQAAATSESSPNGTAFPAAECLKPPDSEDCGEEQTRWHFDAQANNCLTFTFGHCHRNLNHFETYEACMLACMSGPLAACSLPALQGPCKAYAPRWAYNSQTGQCQSFVYGGCEGNGNNFESREACEESCPFPRGNQRCRACKPRQKLVTSFCRSDFVILGRVSELTEEPDSGRALVTVDEVLKDEKMGLKFLGQEPLEVTLLHVDWACPCPNVTVSEMPLIIMGEVDGGMAMLRPDSFVGASSARRVRKLREVMHKKTCDVLKEFLGLH
modifications: biotin on the AviTag (as SPR ligand)
B3: binds (PRTG ECD-Fc); binds (human ISLR2 ECD-Fc).

B4: IL1RAPL1 ECD-Fc (Fc fusion)
chain: LKVVTKRGSADGCTDWSIDIKKYQVLVGEPVRIKCALFYGYIRTNYSLAQSAGLSLMWYKSSGPGDFEEPIAFDGSRMSKEEDSIWFRPTLLQDSGLYACVIRNSTYCMKVSISLTVGENDTGLCYNSKMKYFEKAELSKSKEISCRDIEDFLLPTREPEILWYKECRTKTWRPSIVFKRDTLLIREVREDDIGNYTCELKYGGFVVRRTTELTVTAPLTDKPPKLLYPMESKLTIQETQLGDSANLTCRAFFGYSGDVSPLIYWMKGEKFIEDLDENRVWESDIRILKEHLGEQEVSISLIVDSVEEGDLGNYSCYVENGNGRRHASVLLHKRELMYT
modifications: biotin on the AviTag (as SPR ligand)
B4: binds (PTPRS ECD-Fc).

Reference: publication PMC7440162 (Cell, 2020)
